Data: patent US20180346531

Legend:
[1] = system: S1-KRAB ATF (synthetic construct); experiment: cell_activity; settings: luciferase reporter with target site in HEK293T, p<0.05
[2] = system: S1 zinc finger array (six-finger ATF) (synthetic construct); experiment: EMSA; settings: ZBA (10 mM Tris pH 8.5, 90 mM KCl, 1 mM MgCl2, 100 uM ZnCl2), 0.05% NP-40, 0.1 mg/mL BSA, glycerol, room temperature 1.5 h; apparent KD, average of at least …
[3] = system: SR71-KRAB ATF (synthetic construct); experiment: cell_activity; settings: luciferase reporter with target site in HEK293T, p<0.05

## CATGCGTAGGGAGCCGCG (double strand) [S1 target site (18 bp; Snurf promoter)]
[1]
  activity (fold repression): > 5

## CCTCTTCGCTATTACGCCAGCCATGCGTAGGGAGCCGCGGAACGTTCGATCGTACTCGAGTCAGGGTG (double strand) [S1 EMSA target]
[2]
  Kd: 3 nM

## GCAGGACCTGCTGCACTG (double strand) [SR71 target site (18 bp)]
[3]
  activity (fold repression): > 5
